Assay results from doi:10.1101/2020.08.10.245050, “Crystal structures of Arabidopsis and Physcomitrella CR4 reveal the molecular architecture of CRINKLY4 receptor kinases” (bioRxiv, 2020).
Like-named read-outs stand apart in the source and are kept apart here. Where no end group is shown, it is not given here. [ ]: non-standard residue; d: D form. Hyp = O=C(O)[C@@H]1C[C@@H](O)CN1

How the values were obtained:
[1] = target: T1, biotinylated LRR ectodomain of BARELY ANY MERISTEM 1 (BAM1, residues 20 - 637) with Avi-tag (Arabidopsis (printed as AtBAM1), UniProt O49545 20-637, biotin (BirA biotinylation))
T1 chain: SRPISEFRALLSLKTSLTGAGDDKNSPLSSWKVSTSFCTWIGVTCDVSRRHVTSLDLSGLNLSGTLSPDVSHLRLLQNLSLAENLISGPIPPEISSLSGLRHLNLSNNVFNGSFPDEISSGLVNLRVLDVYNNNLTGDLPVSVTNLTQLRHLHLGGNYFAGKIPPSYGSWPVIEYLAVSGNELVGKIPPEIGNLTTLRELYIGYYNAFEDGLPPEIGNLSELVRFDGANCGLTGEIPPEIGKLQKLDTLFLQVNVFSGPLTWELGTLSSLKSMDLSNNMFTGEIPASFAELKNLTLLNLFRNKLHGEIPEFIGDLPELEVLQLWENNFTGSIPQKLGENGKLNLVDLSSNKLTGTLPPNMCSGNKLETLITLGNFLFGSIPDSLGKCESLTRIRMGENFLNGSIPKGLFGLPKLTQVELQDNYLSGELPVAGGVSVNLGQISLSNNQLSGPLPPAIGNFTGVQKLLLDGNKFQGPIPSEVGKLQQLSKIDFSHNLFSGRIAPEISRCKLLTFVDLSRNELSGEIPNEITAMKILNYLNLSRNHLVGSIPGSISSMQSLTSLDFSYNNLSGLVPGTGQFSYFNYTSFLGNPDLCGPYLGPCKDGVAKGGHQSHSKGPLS

[2] = target: T1, biotinylated LRR ectodomain of BARELY …
[3] = target: T2, biotinylated LRR ectodomain of BARELY ANY MERISTEM 1 (BAM1, residues 20 - 637) with Avi-tag (Arabidopsis (printed as AtBAM1), UniProt O49545 20-637, biotin (BirA biotinylation)); experiment: grating-coupled interferometry (GCI); Creoptix WAVE, 4PCP chip; biotinylated ectodomain captured on immobilised streptavidin; CLE40 peptide as analyte, 1:2 dilution series from 10 µM; 25 °C; 20 mM citrate pH 5.0, 250 mM NaCl, 0.01 % Tween 20; mass transport binding model; triplicates; conditions: both partners purified
T2 construct: BAM1 (AtBAM1) LRR ectodomain, residues 20-637, synthetic gene (Geneart), secreted with the Drosophila melanogaster BiP signal peptide; The sentence on the vector most likely means that the non-cleavable Avi-tag is C-terminal as well; also called AtBAM1^LRR; BAM1^LRR; source: biotinylated with BirA; not shown: StrepII, C-terminal, cleaved; 10x His, C-terminal, cleaved
T2 sequence (looked up): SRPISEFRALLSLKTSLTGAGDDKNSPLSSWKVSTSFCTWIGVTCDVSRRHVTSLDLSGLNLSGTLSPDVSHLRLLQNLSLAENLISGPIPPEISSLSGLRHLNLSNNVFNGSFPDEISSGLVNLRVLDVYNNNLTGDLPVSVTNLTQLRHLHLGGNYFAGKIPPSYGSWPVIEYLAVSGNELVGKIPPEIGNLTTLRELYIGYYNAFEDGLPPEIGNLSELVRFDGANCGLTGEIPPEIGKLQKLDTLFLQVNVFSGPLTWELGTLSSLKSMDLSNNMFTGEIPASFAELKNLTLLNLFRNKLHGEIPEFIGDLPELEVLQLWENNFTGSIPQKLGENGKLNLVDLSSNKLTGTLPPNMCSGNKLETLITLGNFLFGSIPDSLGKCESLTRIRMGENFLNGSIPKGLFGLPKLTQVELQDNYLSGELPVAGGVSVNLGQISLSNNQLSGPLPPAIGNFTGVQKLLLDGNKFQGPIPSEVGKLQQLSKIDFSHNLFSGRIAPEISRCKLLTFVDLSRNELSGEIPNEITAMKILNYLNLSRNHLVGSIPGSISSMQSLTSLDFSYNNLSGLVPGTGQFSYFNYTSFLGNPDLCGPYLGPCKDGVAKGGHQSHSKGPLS

B1: CLAVATA3/ESR-RELATED 40 (CLE40) peptide (peptide)
peptide: RQV[Hyp]TGSDPLHH
notes: the P at position 4 is hydroxyproline; also called synthetic CLE40 peptide; source: synthetic peptide (Peptide Specialty Labs GmbH)
koff [1]: 2.4 s⁻¹
Kd [2]: 697 nM
Kd [3]: ~1000 nM
